Laboratory results published in patent US20170166643A1 (OSE IMMUNOTHERAPEUTICS, published 2017).
Values joined by “and” are separate entries in the source; they are usually repeats but may differ in a detail not shown here. Equal values may be shown once.

Target: T1, Recombinant human CD28 (R&D Systems) (human, UniProt P10747 19-152)
T1 construct: Coated on microtiter plates at 1 ug/mL; also called recombinant CD28
Test: ELISA on immobilized recombinant human CD28, purified Mono28Fc

B1: Mono28Fc, recombinant monovalent antibody derived from the anti-CD28 antibody CD28.3 (heterodimer VH-CH2CH3 + VL-CH2CH3, human IgG1 CH2-CH3) (antibody, V domains shown)
VH: VKLQQSGAELVKPGASVRLSCKASGYTFTEYIIHWIKLRSGQGLEWIGWFYPGSNDIQYNAKFKGKATLTADKSSSTVYMELTGLTSEDSAVYFCARRDDFSGYDALPYWGQGTMVTVSS
VL: DIQMTQSPASLSVSVGETVTITCRTNENIYSNLAWYQQKQGKSPQLLIYAATHLVEGVPSRFSGSGSGTQYSLKITSLQSEDFGNYYCQHFWGTPCTFGGGTKLEIKR
notes: Expressed in COS cells from pSecTag2B with the mouse Ig kappa leader (cleaved on secretion); also called co-transfection with pSec-VH-Fc(CH2-CH3) and pSec-VL-Fc(CH2-CH3)
EC50: 0.1 µg/mL and 1.16 nM
